# In article PMC8782923, “A Klotho-derived peptide protects against kidney fibrosis by targeting TGF-β signaling” (Nature Communications, 2022):
# Values joined by “and” are separate entries in the source; they are usually repeats but may differ in a detail not shown here. Identical values can stand only once.
# B1: sKlotho: soluble Klotho; expression vector human secreted Klotho contains only KL1 domain (protein)
# chain: EPGDGAQTWARFSRPPAPEAAGLFQGTFPDGFLWAVGSAAYQTEGGWQQHGKGASIWDTFTHHPLAPPGDSRNASLPLGAPSPLQPATGDVASDSYNNVFRDTEALRELGVTHYRFSISWARVLPNGSAGVPNREGLRYYRRLLERLRELGVQPVVTLYHWDLPQRLQDAYGGWANRALADHFRDYAELCFRHFGGQVKYWITIDNPYVVAWHGYATGRLAPGIRGSPRLGYLVAHNLLLAHAKVWHLYNTSFRPTQGGQVSIALSSHWINPRRMTDHSIKECQKSLDFVLGWFAKPVFIDGDYPESMKNNLSSILPDFTESEKKFIKGTADFFALCFGPTLSFQLLDPHMKFRQLESPNLRQLLSWIDLEFNHPQIFIVENGWFVSGTTKRDDAKYMYYLKKFIMETLKAIKLDGVDVIGYTAWSLMDGFEWHRGYSIRRGLFYVDFLSQDKMLLPKSSALFYQKLIEKNGFPPLPENQPLEGTFPCDFAWGVVDNYIQVSQLTKPISSLTKPYH
# Test system: NRK-49F cells
# Assay: α-SMA mRNA induced by TGF-β1 in NRK-49F cells (qRT-PCR)
# Type: cell-based, rat
# Conditions: TGF-β1 2 ng/ml, KP1 or sKlotho 10 µg/ml, individual values, n = 4, Fig. 1b
# Description: Normal rat kidney interstitial fibroblasts (NRK-49F) and human proximal tubular epithelial cells (HKC-8) were cultured at 37 °C. NRK-49F cells were serum-starved for 24 h and were pretreated with KP1 (10 µg/ml, 3 µM) for 1 h prior to incubation with TGF-β1 (#240-B; R&D Systems) at 2 ng/ml. Cells were collected at 45 min or 24 h after TGF-β1 treatment, respectively. Whole-cell lysates were prepared and subjected to Western blot analyses. For some experiments, cells were transiently transfected with expression vector human secreted Klotho (sKlotho) that only contains KL1 domain[48], by using Lipofectamine 2000 reagent (Invitrogen, Grand Island, NY) prior to treatment with TGF-β1.
# Total RNA was isolated from NRK-49F cells by using a TRIzol RNA isolation system (Invitrogen, Carlsbad, CA). The cDNA was synthesized using 2 µg of RNA in 20 µl of reaction buffer containing AMV-RT (Promega, Madison, WI), random primers, and oligo primers at 42 °C for 60 min. Quantitative, real-time PCR (qRT-PCR) was performed using a Platinum SYBR Green qPCR Super Mix-UDG kit (Invitrogen). The sequences of the primer pairs: F: […]; R: […]. QPCR data were collected by Step one software v2.2.2.
molecule,measurement,value
B1,α-SMA mRNA expression (relative),10.7876 and 4.655 and 3.074 and 8.483
